Values of other authors in publication PMC3930637.
pKd: −log10 of the molar value.

Target: HIV-1 capsid (CA) CA (Human immunodeficiency virus 1) (UniProt O93182)
Sequence (O93182 133-363): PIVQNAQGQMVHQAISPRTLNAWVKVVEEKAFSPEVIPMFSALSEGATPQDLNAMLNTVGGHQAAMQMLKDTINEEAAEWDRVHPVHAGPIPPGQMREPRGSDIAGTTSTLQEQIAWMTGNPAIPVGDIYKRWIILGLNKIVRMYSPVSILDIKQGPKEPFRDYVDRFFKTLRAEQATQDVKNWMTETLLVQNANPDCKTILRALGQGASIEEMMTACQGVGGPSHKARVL

Sequence of Nup358 cyclophilin homology domain (P49792 3067-3223): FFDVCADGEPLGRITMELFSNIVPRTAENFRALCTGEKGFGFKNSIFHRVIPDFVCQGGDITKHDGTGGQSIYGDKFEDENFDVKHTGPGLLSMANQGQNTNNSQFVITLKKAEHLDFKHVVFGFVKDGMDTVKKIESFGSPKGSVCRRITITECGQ

In the case of “Nup358 cyclophilin homology domain (from UniProt P49792)”, the pKd is given as 4.03.
